Source: the DeepSol protein solubility set

Experiment: soluble on expression in E. coli; label from the status in PepcDB or PDB records

Sequence	soluble on expression in E. coli
CTEPLGLKDNTIPNKQITASSYYKTWGLSAFSWFPYYARLDNQGKFNAWTAQTNSASEWLQIDLGSQKRVTGIITQGARDFGHIQYVAAYRVAYGDDGVTWTEYKDPGASESKIFPGNMDNNSHKKNIFETPFQARFVRIQPVAWHNRITLRVELLGC	soluble
MAVELPKAAIERIFRQGIGERRLSQDAKDTIYDFVPTMAEYVANAAKSVLDASGKKTLMEEHLKALADVLMVEGVEDYDGELFGRATVRRILKRAGIERASSDAVDLYNKLICRATEELGEKAAEYADEDGRKTVQGEDVEKAITYSMPKGGEL	soluble
MQIVQIEQAPKDYISDIKIIPSKSLLLITSWDGSLTVYKFDIQAKNVDLLQSLRYKHPLLCCNFIDNTDLQIYVGTVQGEILKVDLIGSPSFQALTNNEANLGICRICKYGDDKLIAASWDGLIEVIDPRNYGDGVIAVKNLNSNNTKVKNKIFTMDTNSSRLIVGMNNSQVQWFRLPLCEDDNGTIEESGLKYQIRDVALLPKEQEGYACSSIDGRVAVEFFDDQGDDYNSSKRFAFRCHRLNLKDTNLAYPVNSIEFSPRHKFLYTAGSDGIISCWNLQTRKKIKNFAKFNEDSVVKIACSDNILCLATSDDTFKTNAAIDQTIELNASSIYIIFDYENLEHHHHHH	soluble
MADTLGKSELEVIKPQKREIRKGQVRKHIITVKVRNEMGVLARIATLIAGKGYNIEGLSVGETHEKGISRMTIEVIGDDIVIEQVVKQLRRLIDTLKVSDLTDVPHVERELALIKVYTPSSRARDEVLRITEIFRGKVVDVSPDTYTIEVTGDEDKINAMIELLKPFGIKEMARTGKVAMRREMSIKEEENELEHHHHHH	not soluble
MTVDSPILTDTLVVGGGQAGIAMSEHLTGQGVPHIVLERDRIAQRWRTGRWDSLVANGPAWHDRFPGLEFEGLDPDGFASKDAVADYLEAYARKFNAPIRTGVEVVRAERNGGRYGFTVETSAGTYEAQRIVVATGPFQRPVIPAIAPRDPALTQIHSADYRNPGQLPEGAVLVIGAGSSGVQIADELQRAGREVYLSVGPHDRPPRRYRGRDFCWWLGVLGLWDQETVQPGREHVTIAVSGTDGGRTIEFRALAHQGITLVGVTKSFRDGVVAFENDLAENVARGDANHFALLDAADAYIARNGLSLPDEPQARRVPPDPACMTEPILQLDLAAANVTSIIWATGYAAEYGWLNVDAFDANGKPRHQRGVSSEPGVYFLGLPWLSRRGSAFLWGVWHDAKHIAGHIAMQRNYLSYPDFGQSQQLEHHHHHH	soluble
MQTSNITNHERNDSSWMSTVKSTTEVSWNKLSFCDILLKIITFGIYSPHETLAEKHSEKKLMDSFSPSLSQDKMDGEFAHANIDGISIRLCLNKGICSVFYLDGDKIQSTQLSSKEYNNLLSSLPPKQFNLGKVHTITAPVSGNFKTHKPAPEVIETAINCCTSIIPNDDYFHVKDTDFNSVWHDIYRDIRASDSNSTKIYFNNIEIPLKLIADLINELGINEFIDSKKELQMLSYNQVNKIINSNFPQQDLCFQTEKLLFTSLFQDPAFISALTSAFWQSLHITSSSVEHIYAQIMSENIENRLNFMPEQRVINNCGHIIKINAVVPKNDTAISASGGRAYEVSSSILPSHITCNGVGINKIETSYLVHAGTLPSSEGLRNAIPPESRQVSFAIISPDV	not soluble
MTGPEPVPAGPPPDPTPPRRAGSVWAHVGQHFTEEAFDIVVIGAGRMGAACAFYLRQLAPGRSLLLVEEGGLPNEEGATILAPGVWTAQDIPAGQEAQAEWTREQLLGALGSGKTLEVEDRPLLHLLPAGEGSGLTPTLDALADFPEALALLDPARLPVARVDPRALTYRPGSLALLAAQQAIGQGAGLLLNTRAELVPGGVRLHRLTVTNTHQIVVHETRQIRAGVIIVAAGAAGPALVEQGLGLHTRHGRAYRQFPRLDLLSGAQTPVLRASGLTLRPQNGGYTLVPAIHHRDPHGYHPAGGSLTGVPTGLRRELLEDLVGLMDAVPALAGEGLELGRSSADVPGAWLALPGGRPDAPPQAEELAPGLHLLLGGPLADTLGLAAAHELAQRVSASLEHHHHHH	soluble
FTNPGQIVGRIDRDSGMTSTAPAMPDGDWQAYGRTEFGDRYSPLKQITPANVGQLEEAWRIRTGDLPTADDPLELTNENTPLKVNGMLYACTAHSKVLALDPDTGAEIWRFDPQIQSPVGFKGFAHMTCRGVSYYDEEQYARSDVGAPPAALSEAGKAVAASCPRRLFLPTADARLIAINADNGKVCEDFGVKGAVDLTAGIGPFTPGGYYSTSPAAVTRNLVIIGGHVTDNESTNEPSGVIRAFDVHDGKLVWNWDSGNPDETEPLAPGKFYTRNSPNMWSLASVDEKLGQVYLPLGNQMPDQWGGNRTPGAEKFSAGLVALDLNTGKLRWNYQFTHHDLWDMDVGSQPTLLDLKTADGVKPALIAPTKQGSLYVLDRRDGTPIVPIREVPAPQGAVEGDHTAPTQARSDLNLLRPPLTERDMWGSSPFDQMLCRIQFRSLRYEGQYTPPSEQGSLIYPGNVGVFNWGGVSVDPVRQILFTSPNYMAFVSQMVPRDKVPSGSKREGETSGVQPNTGAPYAVIMHPFMSPIGLPCQAPSWGDVAGIDLTTAKVVWQHKNGTSRDNTPVPIGLTVGVPSMGGSITTAGGVAFLSGTLDQYLRAYDVKDGKQLWQARLPAGGQATPMSYTGKDGRQYVLIVAGGHGSFGTRMGDYIIAYALPR	not soluble
MGSDKIHHHHHHLRSNRVTQHPPLQLSLPVHLPDDETFTSYYPAAGNDELIGALKSAASGDGVQAIYLWGPVKSGRTHLIHAACARANELERRSFYIPLGIHASISTALLEGLEQFDLICIDDVDAVAGHPLWEEAIFDLYNRVAEQKRGSLIVSASASPMEAGFVLPDLVSRMHWGLTYQLQPMMDDEKLAALQRRAAMRGLQLPEDVGRFLLNRMARDLRTLFDVLDRLDKASMVHQRKLTIPFVKEMLRL	not soluble
MSLGPVGMSGGMDINSMVSKIVDAERVPKQQRIDNDRTTINASISAYGRLRESLDTMKNLMANFRQEKAFAVRTVETTDDNIVSATATTDAIAGKYAIDVLQLAQSHK	not soluble
MKTVICGVQNMTTIRRLSAEDLLHFNSVNLDQLTETFNLGFYFNYLARWPDYQYVVTDSQSTTVAYIIGKAEGAGDLFHGHVSAVTVAPWFRRMGLASLLMEILENVSEKVYQGYFVDLFVRVSNHRAIEMYKKLGYIVYRRIIGYYSGEEDAFDMRKSLSKDPERKAMIPLDRPVYPSEVLLTD	soluble
MHFFDTHTHLNYLQQFTGEPLSQLIDNAKQADVQKILVVAVKEADFKTIQNMTALFPDNLCYGLGLHPLYIQEHAENDLILLEQALKNRDTNCTAVAEIGLERAIPDLLTDELWAKQCHFFESQLYLAKQFNLPVNIHSRKTHDQIFTFLKRIPLSKLGVVHGFSGSYDQAKRFVDLGYKIGVGGTITYERANKTRQAIAKLPLDALVLETDSPDMPVFGFQGQPNRPERIVESFKALCTLRNEPAELIKKLTWENACQIFSLEHHHHHH	not soluble
MDYKMNNLQLEALLNETLSPQLIKDYCPNGLQVEGKVEVKRIVTGVTASMALIEAAIELKADALLVHHGYFWKNEPEAIRGMKGRRIRTLIQNDLNLYAYHLPLDIHPQLGNNAQLAQRLGICVDGGLEGHPQSVAMFGHFLQPLTGEELAHRIGQVLNRTPLHIAPDQADKLIETVGWCTGGGQDYIELAASRGLDAFISGEISERTTYSAREQSIHYFSAGHHATERYGIKALGEWLAENHGFDVTFIDIDNPVLEHHHHHH	soluble
MILYDAIMYKYPNAVSRKDFELRNDGNGSYIEKWNLRAPLPTQAELETWWEELQKNPPYEPPDQVELLAQELSQEKLARKQLEELNKTLGNELSDIKLSLLSLKGDYAELEHHHHHH	soluble
SLLPDIPEPLKNGTGAIDNNGVIYVGLGTAGTSWYKIDLKKQHKDWERIKSFPGGAREQSVSVFLNDELYVFGGVGKKNSESPLQVYSDVYKYSPVKNTWQKVDTISPVGLTGHTGVKLNETMVLITGGVNEHIFDKYFIDIAAAAADESEKNKVIYNYFNKPAKDYFFNKIVFIYNAKENTWKNAGELPGAGTAGSSSVMGNNFLMLINGELKPGLRTDVIYRAMWDNDKLTWLKNSQLPPSPGEQQQEGLAGAFSGYSHGVLLVGGGANFPGAKQNYTNGKFYSHEGINKKWRDEVYGLINGHWQYMGKMKQPLGYGVSVSYGDEVFLIGGENAKGKPVSSVTSFTMRDGNLLIK	not soluble
MSLSREPQTYLAQRFDPDALGQPALALQLEARHNDTEVPVHRHRKGQLVVACRGGITCTVPDGLWMVPAGFGVWIPGGIAHSNRVTANGKVCFLFVEPGAARLPSDCCTLALSPLVLELILHLSAQPQDYPHDGPLARLAGVLLELLEQAPTEQLYLPLPDNRGLRRIADELTRAPGDRASMAEWARRVAMSERSLARMVRRETGMTFGQWRQQLQIIIALQQLSAGVSVQRTAEILGYESVSSFIGMFRKALGSPPARYVRDSMEGGSHHHHHH	soluble
MHTSLMSYNQNMIPSGDDRPVFPTIDLFANTSLEELQQSLCAAVANYRDFLTRKILPFQQSWVVRVLSESGLDEETLRAIKSCVFTPCCSIPGAVQPDRICQHDSPIYIYTSLNLLSQYVEGKTLLRCYRKFVLASSLPPYRTDIPAEELKNVLNSILPGAYSMPHAVSCFVAILPSKKFTISMSKITTRGGAEEHFVVFSREENDIIPYDIVAVGKTLFSQSDEEFGLPNLSFDELQNLISTLEHHHHHH	not soluble
MQITLARIDDRLIHGQVTTVWSKVANAQRIIICNDDVFNDEVRRTLLRQAAPPGMKVNVVSLEKAVAVYHNPQYQDETVFYLFTNPHDVLTMVRQGVQIATLNIGGMAWRPGKKQLTKAVSLDPQDIQAFRELDKLGVKLDLRVVASDPSVNILDKINETAFCE	soluble
FYRNHYKITYKRRLSDLFREFYLTSSRTKWQLCITLGVALVMLVSRELGLPRPMWAGFAAMSVMQPFAEDLKQRVKHRLPGTIAGGLLFLLLCRVLPE	not soluble
MEIEVTPVDILLQLVKMGKVDPWNIDIVDLTEKYIKMLREMQELDLRISARAILAAAILVRMKSEALLNEDSREQEEKEEERIRVEVDPLVPPLRRVERYYTLDDLIDALMEALEEAERRKPKKKKKVEIDEEIFVIDDFRVDIEKYVEELYKVVKKIYEKTGTPIKFWDLVPDVEPKIIARTFLYLLFLENMGRVEIIQEEPFGEILVVPM	soluble
MAHHHHHHMPSEYHSSLADVSPRLSSRQRCSVRAGLSSTPRHAQGRRHLDPHHFTNLTDDAKRAEGRLGRAHVASSEQQKRADAYYATKQATVAQPPGAECNLYLKSYYYTPLSKQETPSPPPRPTTGFRADAQSTSFQLAEARLRKIKREHPQYEEEVTRALQQQHGDYSIVSTEQKISRRIAVEEYADGTNARMAQIEASTKYRGTPDLGSPAPAIKRSVPYALSEECPPRADTQLSCTSHVRLYPGCGRSSFPPETPVKPRARHLYDGPVPYDTTAASGEAYPSPPAVGERCNIYAKPTLVHVDERRHRDCVEDADSLAMKRARARSGARASQERPDFIFGPGPAPQPRPPSLRHHTEARWKAQERNAENRRTGRALYPQSHRSTSLW	not soluble
MYFMKSKNRFLLISLLSFSTSVFADVNLYGPGGPHVPLIKVAESFEKSQSKRVNITFGPQATWNDKAKKNADILFGASEHSALAIAEGHSERFSKFNIHPVFMREAIILVKKGNPKNIKGMADLLKPGIGIVVNDGAGVSNTSGTAVWEDSVGRMKNVEKLQAFRSNIHVFAPNSGSARKAFVDGEDIDAWITWVDWAIANPTIGDMVRMEDEYRIYRDFNVVLAKNPSSEAIDFFDYLTKSKDAEAIFQHYGWFK	not soluble
